The text below walks through data of patent US20050164166A1 (US Dept. of Health and Human Services, published 2005).

What all share (assay): cell-based or functional assay
The target in assay [1] is Env HT593.1 (clade B) (HIV-1).
Assay [2] deals with Env NL4-3 (clade B) (HIV-1).
Assay [3] addresses Env UG037.8 (clade A) (HIV-1).
The target in assay [4] is Env BR019.4 (clade F/B) (HIV-1).
Assay [5] concerns the target Env RW020.5 (clade A) (HIV-1).
Assay [6] concerns the target Env UG975.10 (clade G) (HIV-1).
Assay [7] has as its target Env US715.6 (clade B) (HIV-1).
The target in assay [8] is Env BR025.9 (clade C) (HIV-1).
Assay [9] deals with Env 89.6 (clade B) (HIV-1, UniProt Q73372 32-853).
For assay [10], the target named is Env TH022.4 (clade EA) (HIV-1).
Assay [11] deals with Env US005.11 (clade B) (HIV-1).

B1: Fab X5 (Fab, V domains shown)
VH: VQLLEQSGAEVKKPGSSVQVSCKASGGTFSMYGFNWVRQAPGHGLEWMGGIIPIFGTSNYAQKFRGRVTFTADQATSTAYMELTNLRSDDTAVYYCARDFGPDWEDGDSYDGSGRGFFDFWGQGTLVTVSS
VL: ELVLTQSPGTLSLSAGERATLSCRASQSVSSGSLAWYQQKPGQAPRLLIYGASTRATGIPDRFSGSGSGTDFTLTIGRLEPEDLAVYYCQQYGTSPYTFGQGTKLEIKR
Turning to B1, the “% of fusion inhibition (cell-cell fusion assay, syncytia count, antibody at 50 ug/ml)” value (“% of fusion inhibition” below) in assay [1] was 27%; in assay [2], 83%; in assay [3], 34%; in assay [4], 37%; in [5] it was 45%; in assay [6] it was 19%. Besides, the “% of fusion inhibition” value in [7] came out at 56%; in assay [8], 71%; in [9] it was 93%; in assay [10], 43%; in assay [11] it was 72%.

B2: soluble scFv m6 (scFv, not shown: small tags and cut ends)
scFv: VLTQSPGTLSLSAGERATLSCRASQSVSSGSLAWYQQKPGQAPRLLIYGASTRATGIPDRFSGSGSGTDFTLTIGRLEPEDLAVYYCQQYGTSPYTFGQGTKLEIKRTGGGGSSGGASGGGGSVRLLEQSGAEVKKPGSSVQVSCKASGGTFSMYGVNWVRQAPGHGLEWMGGIIPIFGTSNYAQKFRGRVTFTADQATSTAYMELTNLRSDDTAVYYCARDFGPDWEDGDSYDGSGRGFFDFWGQGTLVTVSS
For B2, the “% of fusion inhibition” value is 50% in assay [1]; 100% in [2]; 66% in assay [3]; 37% in assay [4]; 56% in assay [5]; 48% in [6]. For the same molecule, the “% of fusion inhibition” value came to 27% in [7]; 57% in [8]; 98% in assay [9]; 72% in assay [10]; 83% in [11].
